Test results published in patent US20250018039A1 (published 2025).

Biological target: T1, wild-type human RAS (KRAS) peptide on HLA-A*03:01 (human)
T1 peptide: VVVGAGGVGK
Assay: cytokine release
Protocol: Cos7 cells transduced with human HLA A*03:01 were independently pulsed with the G12V RAS peptide […] (SEQ ID NO: 33) or the corresponding wild-type peptide […] The transduced cells (effector cells) were co-cultured with the peptide-pulsed target cells. Interferon-gamma secretion was measured.

binding result: no recognition
B1: TCR 807 (TCR, V domains shown)
Valpha: QQKVQQSPESLSVPEGGMASLNCTSSDRNFQYFWWYRQHSGEGPKALMSIFSDGDKKEGRFTAHLNKASLHVSLHIRDSQPSDSALYFCAARPGTQVVGQLTFGRGTRLQVYA
Vbeta: AQTIHQWPVAEIKAVGSPLSLGCTIKGKSSPNLYWYWQATGGTLQQLFYSITVGQVESVVQLNLSASRPKDDQFILSTEKLLLSHSGFYLCAWRDRPSSYEQYFGPGTRLTVL
